Experimental data: article PMC10063658, “The RNA-binding protein hnRNP F is required for the germinal center B cell response”

Assays:
[1] = test system: hnRNP H1 (B cell nuclear extract) (mouse); assay: pull-down/MS; conditions: Pull-down: 20 mM Tris-HCl pH 7.5, 200 mM NaCl, 6 mM EDTA, 5 mM KF, 5 mM beta-glycerophosphate, 4 h at 4 C, 100 ug nuclear extract; EMSA: BersinBio RNA-EMSA …
[2] = test system: CELF2 (mouse); assay: pull-down/MS; conditions: Pull-down: 20 mM Tris-HCl pH 7.5, 200 mM NaCl, 6 mM EDTA, 5 mM KF, 5 mM beta-glycerophosphate, 4 h at 4 C, 100 ug nuclear extract; EMSA: BersinBio RNA-EMSA …
[3] = test system: hnRNP H3 (mouse); assay: pull-down/MS; conditions: Pull-down: 20 mM Tris-HCl pH 7.5, 200 mM NaCl, 6 mM EDTA, 5 mM KF, 5 mM beta-glycerophosphate, 4 h at 4 C, 100 ug nuclear extract; EMSA: BersinBio RNA-EMSA …
[4] = test system: hnRNP H2 (mouse); assay: pull-down/MS; conditions: Pull-down: 20 mM Tris-HCl pH 7.5, 200 mM NaCl, 6 mM EDTA, 5 mM KF, 5 mM beta-glycerophosphate, 4 h at 4 C, 100 ug nuclear extract; EMSA: BersinBio RNA-EMSA …
[5] = target: T1, hnRNP F (mouse, UniProt Q9Z2X1 1-415); assay: EMSA; Pull-down: 20 mM Tris-HCl pH 7.5, 200 mM NaCl, 6 mM EDTA, 5 mM KF, 5 mM beta-glycerophosphate, 4 h at 4 C, 100 ug nuclear extract; EMSA: BersinBio RNA-EMSA kit, 12.5 nM biotin-RNA, 200 ng protein; conditions: protein: recombinant, tags: His
T1 sequence: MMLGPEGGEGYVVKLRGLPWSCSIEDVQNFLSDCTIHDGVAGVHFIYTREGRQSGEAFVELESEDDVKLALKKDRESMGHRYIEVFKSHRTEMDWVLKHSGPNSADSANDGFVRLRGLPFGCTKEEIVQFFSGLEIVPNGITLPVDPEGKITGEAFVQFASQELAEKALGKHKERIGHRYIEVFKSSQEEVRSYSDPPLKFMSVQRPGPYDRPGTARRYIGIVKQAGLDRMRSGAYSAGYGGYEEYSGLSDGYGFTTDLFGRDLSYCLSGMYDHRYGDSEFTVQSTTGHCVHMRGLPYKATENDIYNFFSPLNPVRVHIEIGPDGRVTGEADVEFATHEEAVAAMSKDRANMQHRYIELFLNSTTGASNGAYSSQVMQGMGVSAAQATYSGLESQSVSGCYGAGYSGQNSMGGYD

Cd40 exon 6 sense RNA
binding signal (fold LFQ (sense/antisense)) [1]: > 5 | binding signal (fold LFQ (sense/antisense)) [2]: > 5 | binding signal (fold LFQ (sense/antisense)) [3]: > 5 | binding signal (fold LFQ (sense/antisense)) [4]: > 5

B1: I6-WT (ssRNA)
RNA: UCCAGGGGAGAAUGGCCUUGCCAAGUCUUUGGGAAGCAGGGAACU
binding result [5]: binds

B2: I7-WT (ssRNA)
RNA: UCAGGAGAGGAAAGGGAGGGAGGGU
binding result ([5]; label: 5' biotin): binds
